# B1: GST-Tat-1 K41A (aa 1-48) (other)
# chain: MEPVDPRLEPWKHPGSQPKTACTNCYCKKCCFHCQVCFITAALGISYG
# Biological target: cyclin T1 (native 87 kDa protein of HeLa nuclear extract) (human)
# Assay: GST-Tat bead pull-down from HeLa nuclear extract, SDS-PAGE, silver stain
# Chain of cyclin T1 (native 87 kDa protein of HeLa nuclear extract) (human) (chain, as listed by the source limits assumed): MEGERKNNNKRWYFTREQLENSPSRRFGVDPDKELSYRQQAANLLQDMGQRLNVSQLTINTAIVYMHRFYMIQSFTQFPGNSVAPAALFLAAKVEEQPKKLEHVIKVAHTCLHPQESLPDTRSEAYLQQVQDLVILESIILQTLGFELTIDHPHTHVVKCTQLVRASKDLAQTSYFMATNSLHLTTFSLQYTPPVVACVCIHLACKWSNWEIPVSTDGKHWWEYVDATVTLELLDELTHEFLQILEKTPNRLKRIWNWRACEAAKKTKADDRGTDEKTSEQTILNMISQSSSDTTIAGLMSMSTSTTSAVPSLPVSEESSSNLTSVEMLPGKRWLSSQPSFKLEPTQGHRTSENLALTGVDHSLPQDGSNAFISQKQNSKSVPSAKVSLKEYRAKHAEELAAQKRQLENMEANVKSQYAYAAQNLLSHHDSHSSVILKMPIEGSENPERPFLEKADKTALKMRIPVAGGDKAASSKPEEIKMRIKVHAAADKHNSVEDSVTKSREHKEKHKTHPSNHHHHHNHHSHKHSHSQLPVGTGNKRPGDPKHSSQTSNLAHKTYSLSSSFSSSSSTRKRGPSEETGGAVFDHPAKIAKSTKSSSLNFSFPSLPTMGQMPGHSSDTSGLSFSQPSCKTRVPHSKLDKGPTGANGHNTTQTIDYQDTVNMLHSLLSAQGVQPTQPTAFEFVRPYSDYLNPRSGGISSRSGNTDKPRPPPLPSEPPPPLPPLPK
binder,measurement,value
B1,binding result,no binding
